Reference: patent US20250237641A1 (priority 2021, published 2025)

B1: IFN-γ: cytokine interferon gamma, used to induce APOL1 expression (protein, UniProt P01579 24-161, looked up)
Interferon gamma: QDPYVKEAENLKKYFNAGHSDVADNGTLFLGILKNWKEESDRKIMQSQIVSFYFKLFKNFKDDQSIQKSVETIKEDMNVKFFNSNKKKRDDFEKLTNYSVTDLNVQRKAIHELIQVMAELSPAAKTGKRKRSQMLFRG

Key:
SARS-CoV-2 = assay: Plaque assay of supernatants from SARS-CoV-2 infected kidney organoids treated with remdesivir; assay type: cell-based; conditions: 2 μM remdesivir immediately after infection with SARS-CoV-2 or SARS-CoV-2-mNG; vs untreated organoids
Experimental: Mean±SEM of three independent experiments. Paired t-test, **p<0.01.
To investigate the efficacy of remdesivir, kidney organoids were infected with SARS-CoV-2 or SARS-CoV-2-mNG, and then treated with a 2 μM dose of remdesivir immediately after infection (FIG. 5A).

kidney organoids = conditions: short term, at the efficacious dose (2 μM)
COVID-19 patients = conditions: cited from earlier work
[1] = tested on: kidney organoid podocytes; assay: Time-lapse imaging of GFP-PODXL kidney organoids under prolonged treatment (podocyte integrity, organoid size); assay type: cell-based, human
Experimental: It was determined whether podocytes are damaged by prolonged IFN-γ treatment. As shown at FIG. 24A, an example time course for prolonged IFN-γ treatment involves regular imaging of organoids during treatment of mature organoids with IFN-γ prior to fixation. […] Further, podocyte junctional tracks appear intact with 7d IFN-γ treatment (results from confocal immunofluorescence microscopy of control versus 7d IFN-γ treatment; markers: ZO-1, Synaptopodin, ZO-1+Synaptopodin, APOL1, and DAPI). Based on these observations, it was concluded that podocytes appear largely undamaged by prolonged IFN-γ treatment.

APOL1 expression = APOL1 expression in kidney organoids on agonist (IFN-γ) treatment, immunofluorescence; assay type: cell-based, human
Experimental: Experiments were performed to determine APOL1 localization in normal human kidney and stimulation in kidney organoids.

[2] = tested on: kidney organoid endothelial networks; assay: Endothelial networks and tubular structures of kidney organoids under prolonged IFN-γ treatment; assay type: cell-based, human; conditions: prolonged (7d) treatment
Source text: As such, it was next determined whether JAK ½ inhibition prevents IFN-γ-induced loss of endothelial networks and disorganization of tubular structures. […] As a result, it was concluded that JAK ½ inhibition prevents IFN-γ-induced loss of endothelial networks and disorganization of tubular structures.

[3] = prolonged treatment of mature organoids

| Molecule | reduced replicated virus in supernatants (plaque assay) (SARS-CoV-2) | safety in kidney cells (kidney organoids) | tolerability (COVID-19 patients; AKI and CKD patients) | risk of developing AKI (COVID-19 patients; remdesivir-treated patients) | organoid size [1, 3] | APOL1 agonist screen result (APOL1 expression; 24-hour screen) | saturating dose for APOL1 expression (APOL1 expression; 24 hr, fluorescent intensity of APOL1 in organoids) | APOL1 expression on titration (APOL1 expression; IFN-γ titration) | effect on endothelial networks and tubular structures [2] | podocyte junctional tracks ([1]; 7d treatment, ZO-1, Synaptopodin staining) | loss of GFP-PODXL [1, 3] |
| --- | --- | --- | --- | --- | --- | --- | --- | --- | --- | --- | --- |
| CCC(CC)COC(=O)[C@H](C)N[P@](=O)(OC[C@H]1O[C@@](C#N)(c2ccc3c(N)ncnn23)[C@H](O)[C@@H]1O)Oc1ccccc1 [remdesivir] | 71.4%±18% | supports short term safety | tolerated well | increase chances of developing AKI |  |  |  |  |  |  |  |
| tunicamycin [reference compound] |  |  |  |  | shrink in size |  |  |  |  |  |  |
| B1 |  |  |  |  | no significant change | strong agonist for APOL1 expression | 100 ng/mL | dose-responsive activation of APOL1 expression | pronounced loss of endothelial networks and tubular structures | appear intact | does not result in enhanced loss of GFP-PODXL |
